The record followed here is patent US20100129344.

In data set [1] the target is T1, Highly phosphorylated HepG2-purified IGFBP-1, P08833.
T1 chain: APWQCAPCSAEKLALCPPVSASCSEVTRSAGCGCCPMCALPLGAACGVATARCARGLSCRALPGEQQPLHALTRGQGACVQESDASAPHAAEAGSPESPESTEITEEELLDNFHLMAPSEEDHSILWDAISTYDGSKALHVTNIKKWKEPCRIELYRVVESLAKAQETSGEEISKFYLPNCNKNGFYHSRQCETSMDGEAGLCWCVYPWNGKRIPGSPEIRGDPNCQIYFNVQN

Data set [2] concerns the target Glycosylated IGFBP-3 (human, GroPep), P17936.
Data set [3] concerns the target T2, Recombinant non-phosphorylated IGFBP-1 (human), P08833.
T2 chain: T1 chain

The target in data set [4] is T3, IGFBP-6 (human, GroPep), P24592.
T3 chain: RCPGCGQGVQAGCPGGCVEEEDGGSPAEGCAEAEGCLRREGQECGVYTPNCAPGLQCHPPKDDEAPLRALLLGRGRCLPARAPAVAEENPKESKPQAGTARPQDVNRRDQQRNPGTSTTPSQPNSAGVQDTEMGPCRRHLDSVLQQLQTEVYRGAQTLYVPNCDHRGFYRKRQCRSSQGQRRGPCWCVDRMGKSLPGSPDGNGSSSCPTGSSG

The target of data set [5] is T4, Dephosphorylated preparation of HepG2-purified IGFBP-1, P08833.
T4 chain: T1 chain

Data set [6] deals with IGFBP-5 (human, Upstate), P24593.
The target in data set [7] is T5, IGFBP-2 (human, GroPep), P18065.
T5 chain: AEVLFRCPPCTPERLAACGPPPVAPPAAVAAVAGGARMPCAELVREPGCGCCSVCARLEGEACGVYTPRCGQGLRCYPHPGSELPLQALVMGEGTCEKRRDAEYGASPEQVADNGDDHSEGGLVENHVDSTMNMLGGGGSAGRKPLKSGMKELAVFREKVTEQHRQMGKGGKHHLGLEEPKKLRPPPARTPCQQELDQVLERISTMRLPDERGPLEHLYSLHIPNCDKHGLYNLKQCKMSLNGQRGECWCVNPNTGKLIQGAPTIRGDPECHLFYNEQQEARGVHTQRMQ

The target in data set [8] is T6, Recombinant phosphorylated IGFBP-1 (human), intact, P08833.
T6 chain: T1 chain

Data set [9] addresses T7, IGFBP-4 (human, GroPep), P22692.
T7 chain: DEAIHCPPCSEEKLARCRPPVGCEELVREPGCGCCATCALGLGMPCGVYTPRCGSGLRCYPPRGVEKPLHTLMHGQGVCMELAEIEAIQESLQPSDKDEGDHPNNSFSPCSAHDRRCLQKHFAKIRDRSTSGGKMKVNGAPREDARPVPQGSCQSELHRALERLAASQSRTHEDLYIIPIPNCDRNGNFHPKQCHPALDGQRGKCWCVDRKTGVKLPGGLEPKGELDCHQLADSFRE

Glycosylated IGFBP-3 (human, GroPep), P17936, sequence (P17936 28-291): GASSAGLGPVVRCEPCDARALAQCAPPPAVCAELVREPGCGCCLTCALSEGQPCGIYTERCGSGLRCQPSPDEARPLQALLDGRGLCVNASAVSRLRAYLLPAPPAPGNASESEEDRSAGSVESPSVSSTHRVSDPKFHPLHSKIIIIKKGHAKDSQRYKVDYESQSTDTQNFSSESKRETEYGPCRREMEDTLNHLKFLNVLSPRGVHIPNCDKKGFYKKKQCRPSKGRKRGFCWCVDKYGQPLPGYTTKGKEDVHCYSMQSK
IGFBP-5 (human, Upstate), P24593, sequence (P24593 21-272): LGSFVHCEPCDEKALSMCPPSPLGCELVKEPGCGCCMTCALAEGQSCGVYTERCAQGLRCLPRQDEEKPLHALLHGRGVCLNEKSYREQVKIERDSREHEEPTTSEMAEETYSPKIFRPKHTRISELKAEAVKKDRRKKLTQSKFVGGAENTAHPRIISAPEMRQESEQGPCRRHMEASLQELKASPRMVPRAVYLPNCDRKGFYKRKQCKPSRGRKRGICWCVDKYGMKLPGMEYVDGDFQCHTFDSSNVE

B1: Azurocidin, native, partially purified from human urine by heparin affinity chromatography (protein)
chain: IVGGRKARPRQFPFLASIQNQGRHFCGGALIHARFVMTAASCFQSQNPGVSTVVLGAYDLRRRERQSRQTFSISSMSENGYDPQQNLNDLMLLQLDREANLTSSVTILPLPLQNATVEAGTRCQVAGWGSQRSGGRLSRFPRFVNVTVTPEDQCRPNNVCTGVLTRRGGICNGDGGTPLVCEGLAHGVASFSLGPCGRGPDFFTRVALFRDWIDGVLNNPGP
For B1, the “cleavage of IGFBP-1 by urine, 2 h at 37 C, neutral conditions (affinity labelling with radioiodinated IGF-I, SDS-PAGE, autoradiography)” value in [1] was “One µl of urine cleaved more than 50% of each IGFBP-1 isoform”. Moreover, the “cleavage of IGFBP by urine, 2 h at 37 C, neutral conditions” value (shortened to “cleavage of IGFBP by urine, 2 h at 37 C”) in data set [2] is on record as 2 µl had minimal effect on ... glycosylated (g) IGFBP-3. Further, in data set [3], the “cleavage of radioiodinated recombinant npIGFBP-1 by 0.25 µl heparin eluate at pH 2 and 7 (2 h, 37 C; SDS-PAGE, autoradiography)” value is “eluate at pH 2: strong 30K band, no fragments; eluate at pH 7: faint 30K band and a strong band at 14.3K”; the “cleavage of radioiodinated recombinant npIGFBP-1 by 0.25 µl heparin eluate at pH 2 to 8 (2 h, 37 C; SDS-PAGE, autoradiography)” value is “the 30K band is strong at pH 2 and 4, a little weaker at pH 5, thin at pH 6 and absent at pH 7, 7.5 and 8; bands at 14.3K appear at pH 5 and 6 and are strongest at pH 7 and 7.5”; the “cleavage of radioiodinated recombinant npIGFBP-1 by 0.5 µl urine after preincubation with 2, 5 or 10 ng IGF-I” value is “at 2, 5 and 10 ng IGF-I the upper band is kept, weaker than in the untreated lane (*), and the lower band is only faint; no clear change from 2 to 10 ng”; the “cleavage of radioiodinated recombinant npIGFBP-1 by 0.5 µl urine after preincubation with 2, 5 or 10 ng IGF-II” value was “at 2, 5 and 10 ng IGF-II the upper band is kept, weaker than in the untreated lane (*), and the lower band is only faint; no clear change from 2 to 10 ng”. Moreover, in [3], the “cleavage of radioiodinated recombinant npIGFBP-1 by 0.5 µl urine after preincubation with 2, 5 or 10 ng insulin” value is “at all three amounts of insulin the upper band is as faint as with urine alone and the lower band is seen”; the “cleavage of radioiodinated recombinant npIGFBP-1 by 0.5 µl urine alone at pH 7 (2 h, 37 C; SDS-PAGE, autoradiography)” value was “lane U: the upper band of the untreated lane (*) is nearly gone and a strong lower band appears”; the “cleavage of radioiodinated recombinant npIGFBP-1 by 0.5 µl urine at pH 2 to 8 (2 h, 37 C; SDS-PAGE, autoradiography); the neutral range is meant” value is “the 30K band is strong at pH 6, weaker at pH 5, faint at pH 7 and absent at pH 7.5 and 8; strong fragment bands at 14.3K at pH 7, 7.5 and 8 (at pH 2 and 4 the 30K band is also absent, with only faint signal near 14.3K)”; the “time course of degradation by 0.5 µl urine at 37 C (radioiodinated substrate, SDS-PAGE, autoradiography)” value is “no difference was found in the rate of degradation of each isoform, with fragments visible within 3 min, and substantial degradation by 2 h”. Further, the “cleavage of IGFBP by urine, 2 h at 37 C” value in data set [4] is 2 µl had minimal effect on ... not shown here, IGFBP-4 and IGFBP-6. Also, the “cleavage of IGFBP-1 by urine, 2 h at 37 C, neutral conditions (affinity labelling with radioiodinated IGF-I, SDS-PAGE, autoradiography)” value in [5] is on record as “One µl of urine cleaved more than 50% of each IGFBP-1 isoform”. In data set [6], the “cleavage of IGFBP by urine, 2 h at 37 C” value is on record as 2 µl had minimal effect on ... IGFBP-5. The “cleavage of IGFBP by urine, 2 h at 37 C” value in data set [7] was 2 µl had minimal effect on IGFBP-2. In addition, in data set [8], the “proteolysis of IGFBP-1 (SDS-PAGE, silver staining)” value is recorded as “Azurocidin-dependent proteolysis of phosphorylated IGFBP-1 was seen within minutes, using a protease:substrate molar ratio of 1:3,500”; the “time course of degradation by 0.5 µl urine at 37 C (radioiodinated substrate, SDS-PAGE, autoradiography)” value was “no difference was found in the rate of degradation of each isoform, with fragments visible within 3 min, and substantial degradation by 2 h”. In data set [9], the “cleavage of IGFBP by urine, 2 h at 37 C” value is 2 µl had minimal effect on ... not shown here, IGFBP-4.

B2: Recombinant azurocidin 27-250, purified from murine myeloma cells (R&D Systems) (protein)
chain: IVGGRKARPRQFPFLASIQNQGRHFCGGALIHARFVMTAASCFQSQNPGVSTVVLGAYDLRRRERQSRQTFSISSMSENGYDPQQNLNDLMLLQLDREANLTSSVTILPLPLQNATVEAGTRCQVAGWGSQRSGGRLSRFPRFVNVTVTPEDQCRPNNVCTGVLTRRGGICNGDGGTPLVCEGLAHGVASFSLGPCGRGPDFFTRVALFRDWIDGVLNNPGPGP
Turning to B2, the “proteolysis of IGFBP-1” value in data set [8] is “Recombinant human azurocidin^27-250, produced in mouse myeloma cells, had no effect on IGFBP-1 (data not shown)”.
